According to article PMC10557602 (bioRxiv, 2023):

B1: SARS-CoV-2 nsp9 (natural protein)
chain: NNELSPVALRQMSCAAGTTQTACTDDNALAYYNTTKGGRFVLALLSDLQDLKWARFPKSDGTGTIYTELEPPCRFVTDTPKGPKVKYLYFIKGLNNLNRGMVLGSLAATVRLQ
B2: RNAylated-nsp9 (20mer RNA) (natural protein)
chain: B1 chain

Target: SARS-CoV-2 nsp12 (SARS-CoV-2, UniProt P0DTD1)
Experiment: cryo-EM structure

| Binder | binding result |
| --- | --- |
| B1 | binds |
| B2 | binds |
